These results are taken from patent US20110243944A1 (SHANGHAI KEXIN BIOTECH, published 2011).

The target in this assay is T1, RANK (Receptor Activator for Nuclear Factor κB) (UniProt Q9Y6Q6 30-616, limits assumed).
T1 construct: whole, on cells; Endogenous receptor on THP1 monocytes; also called RANKL receptor
T1 sequence (looked up): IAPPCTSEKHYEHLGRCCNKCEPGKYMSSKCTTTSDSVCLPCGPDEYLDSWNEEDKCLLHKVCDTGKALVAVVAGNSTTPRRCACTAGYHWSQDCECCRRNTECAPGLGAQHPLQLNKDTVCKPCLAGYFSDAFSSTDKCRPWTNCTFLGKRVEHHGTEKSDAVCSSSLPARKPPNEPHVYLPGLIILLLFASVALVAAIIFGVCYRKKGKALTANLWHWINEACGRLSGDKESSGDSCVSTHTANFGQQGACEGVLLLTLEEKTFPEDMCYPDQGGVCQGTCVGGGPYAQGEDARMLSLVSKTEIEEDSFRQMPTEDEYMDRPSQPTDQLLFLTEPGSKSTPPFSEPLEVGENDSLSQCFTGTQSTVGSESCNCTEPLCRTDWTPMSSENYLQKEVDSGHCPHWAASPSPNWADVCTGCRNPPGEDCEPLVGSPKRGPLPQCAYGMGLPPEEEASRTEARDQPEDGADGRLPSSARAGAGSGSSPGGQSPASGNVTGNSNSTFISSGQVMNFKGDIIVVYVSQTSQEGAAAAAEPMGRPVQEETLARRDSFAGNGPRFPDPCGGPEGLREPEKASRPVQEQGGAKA
In words: flow cytometry; 5 µg RIG on 1*10^6 THP1 monocytes, detected with FITC labeled anti human RANKL antibody. On the procedure:
1*10⁶ THP1 monocytes were grown in MCSF and RANKL medium for 72 hours and mixed with 5 μg purified RIG protein from Implementation 1 for additional 1 hour at 4° C. 5 μl FITC labeled anti human RANKL antibody (CALTAG, CA) was then added into the mixture and flow cytometry was used to examine FITC positive cells. […] In FIG. 4, SSC-H presents the pellet number in cytoplasm, FSC-H presents the cell size, FL2-H presents PE and FL1-H presents FITC.
In general terms: Flow cytometry measures light scatter and fluorescence of single cells or particles in a stream.

B1: fusion protein RIG (Fc fusion)
chain: MRRASRDYTKYLRGSEEMGGGPGAPHEGPLHAPPPPAPHQPPAASRSMFVALLGLGLGQVVCSVALFFYFRAQMDPNRISEDGTHCIYRILRLHENADFQDTTLESQDTKLIPDSCRRIKQAFQGAVQKELQHIVGSQHIRAEKAMVDGSWLDLAKRSKLEAQPFAHLTINATDIPSGSHKVSLSSWYHDRGWAKISNMTFSNGKLIVNQDGFYYLYANICFRHHETSGDLATEYLQLMVYVTKTSIKIPSSHTLMKGGSTKYWSGNSEFHFYSINVGGFFKLRSGEEISIEVSNPSLLDPDQDATYFGAFKVRDIDGSEPKSCDKTHTCPPCPAPELLGGPSVFLFPPKPKDTLMISATPEVTCVVVDVSHEDPEVKFMWYVDGVEVHNAKTKPAEEQYNSTYAVVSVLTVLHQDWLNGKEYKCKVSNKALPAPIEKTISKAKGQPAEPQVYTLPPSRDELTYNQVSLTCLVKGFYPSDIAVEWESNGQPENNYKTTPPVLDSDGSFFLYSKLTVDKSRWQQGNVFSCSVMHEALHNHYTQKSLSLSPGK
notes: also called RANKL-Fcγ fusion protein; RIG protein
On to B1, for which the binding result is on record as “binds”.
